Source: IntAct's records for PubMed 16083711

B1: DNA mismatch repair protein Mlh1 (Homo sapiens), P40692 (parent)
chain: MSFVAGVIRRLDETVVNRIAAGEVIQRPANAIKEMIENCLDAKSTSIQVIVKEGGLKLIQIQDNGTGIRKEDLDIVCERFTTSKLQSFEDLASISTYGFRGEALASISHVAHVTITTKTADGKCAYRASYSDGKLKAPPKPCAGNQGTQITVEDLFYNIATRRKALKNPSEEYGKILEVVGRYSVHNAGISFSVKKQGETVADVRTLPNASTVDNIRSIFGNAVSRELIEIGCEDKTLAFKMNGYISNANYSVKKCIFLLFINHRLVESTSLRKAIETVYAAYLPKNTHPFLYLSLEISPQNVDVNVHPTKHEVHFLHEESILERVQQHIESKLLGSNSSRMYFTQTLLPGLAGPSGEMVKSTTSLTSSSTSGSSDKVYAHQMVRTDSREQKLDAFLQPLSKPLSSQPQAIVTEDKTDISSGRARQQDEEMLELPAPAEVAAKNQSLEGDTTKGTSEMSEKRGPTSSNPRKRHREDSDVEMVEDDSRKEMTAACTPRRRIINLTSVLSLQEEINEQGHEVLREMLHNHSFVGCVNPQWALAQHQTKLYLLNTTKLSEELFYQILIYDFANFGVLRLSEPAPLFDLAMLALDSPESGWTEEDGPKEGLAEYIVEFLKKKAEMLADYFSLEIDEEGNLIGLPLLIDNYVPPLEGLPIFILRLATEVNWDEEKECFESLSKECAMFYSIRKQYISEESTLSGQQSEVPGSIPNSWKWTVEHIVYKALRSHILPPKHFTEDGNILQLANLPDLYKVFERC
partner: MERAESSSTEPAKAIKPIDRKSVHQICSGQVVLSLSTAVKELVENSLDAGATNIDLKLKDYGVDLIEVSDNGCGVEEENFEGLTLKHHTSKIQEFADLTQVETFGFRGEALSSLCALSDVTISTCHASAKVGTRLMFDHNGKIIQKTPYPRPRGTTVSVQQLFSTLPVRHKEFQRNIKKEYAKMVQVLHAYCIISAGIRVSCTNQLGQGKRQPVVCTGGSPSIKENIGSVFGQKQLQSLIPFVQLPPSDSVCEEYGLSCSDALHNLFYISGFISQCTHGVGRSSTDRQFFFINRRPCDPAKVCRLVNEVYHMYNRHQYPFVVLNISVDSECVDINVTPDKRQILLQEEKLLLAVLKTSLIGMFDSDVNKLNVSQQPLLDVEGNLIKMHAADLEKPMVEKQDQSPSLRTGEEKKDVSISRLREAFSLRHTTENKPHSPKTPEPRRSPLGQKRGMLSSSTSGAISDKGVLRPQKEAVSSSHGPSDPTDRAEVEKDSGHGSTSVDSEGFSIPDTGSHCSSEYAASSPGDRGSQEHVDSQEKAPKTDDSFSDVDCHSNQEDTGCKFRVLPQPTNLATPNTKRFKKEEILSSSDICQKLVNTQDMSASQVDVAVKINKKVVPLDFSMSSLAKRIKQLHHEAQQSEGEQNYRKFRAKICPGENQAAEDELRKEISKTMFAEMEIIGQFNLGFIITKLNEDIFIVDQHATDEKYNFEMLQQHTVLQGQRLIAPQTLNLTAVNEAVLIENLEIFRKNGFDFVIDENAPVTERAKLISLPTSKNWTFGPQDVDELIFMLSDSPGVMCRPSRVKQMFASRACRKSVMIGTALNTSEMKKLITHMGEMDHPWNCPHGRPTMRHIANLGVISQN

Variants of: B1
Conditions: with pms2_human PMS2, P54278

Effect of a mutation on the interaction, with no effect:
S247P
F80V
C77R
P28L
K84E
S93G
G67R
I107R
I219V
V213M
K443Q
L155R
A29S
H329P
